The results in this text go back to US7973137.

Values joined by “and” are separate entries in the source; they are usually repeats but may differ in a detail not shown here. Equal entries are not always repeated.

Assay [1] deals with QL9-loaded H-2 L^d (murine) (UniProt P01897). In words: direct flow cytometry on peptide-loaded RMA-S L^d cells, serial dilutions, detected with H57-FITC.
Assay [2] has as its target p2Ca-loaded H-2 L^d (murine) (UniProt P01897). In words: flow cytometry on cells loaded with a titration of peptide; lower end of the titration.
Assay [3] deals with QL9-loaded H-2 L^d (murine) (UniProt P01897). The assay is described as above.
Assay [4] has as its target SIY-loaded H-2 K^bm3 on T2 K^bm3 cells (murine). In words: flow cytometry on peptide-loaded T2 K^bm3 cells.
Assay [5] deals with p2Ca-loaded H-2 L^d (murine) (UniProt P01897). In words: flow cytometry on cells loaded with a titration of peptide; upper end of the titration.
Sequence of p2Ca-loaded H-2 L^d (murine) (P01897 25-362): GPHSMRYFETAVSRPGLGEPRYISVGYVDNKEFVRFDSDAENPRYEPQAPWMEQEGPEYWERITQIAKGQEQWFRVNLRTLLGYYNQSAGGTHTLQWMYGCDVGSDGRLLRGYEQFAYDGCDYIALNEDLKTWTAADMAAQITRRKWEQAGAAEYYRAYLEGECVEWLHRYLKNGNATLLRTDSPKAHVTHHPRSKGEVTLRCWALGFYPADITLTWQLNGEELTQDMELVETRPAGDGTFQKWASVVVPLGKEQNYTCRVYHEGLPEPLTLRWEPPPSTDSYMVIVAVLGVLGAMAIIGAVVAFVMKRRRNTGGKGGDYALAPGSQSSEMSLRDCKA
Assay [6] has as its target QL9-loaded H-2 L^d (murine) (UniProt P01897). In words: direct flow cytometry on peptide-loaded RMAS-L^d cells.
Assay [7] deals with SIY-loaded H-2 K^bm3 on T2 K^bm3 cells (murine). In words: cell-based or functional assay.
Assay [8] addresses p2Ca-loaded H-2 L^d (murine) (UniProt P01897). In words: cell-based or functional assay.
The target in assay [9] is dEV-8-loaded H-2 K^bm3 on T2 K^bm3 cells (murine). Kind of assay: cell-based or functional assay.
For assay [10], the target named is SIY-loaded H-2 K^b on T2 K^b cells (murine) (UniProt P01901). In words: cell-based or functional assay.
Sequence of SIY-loaded H-2 K^b on T2 K^b cells (murine) (P01901 22-369): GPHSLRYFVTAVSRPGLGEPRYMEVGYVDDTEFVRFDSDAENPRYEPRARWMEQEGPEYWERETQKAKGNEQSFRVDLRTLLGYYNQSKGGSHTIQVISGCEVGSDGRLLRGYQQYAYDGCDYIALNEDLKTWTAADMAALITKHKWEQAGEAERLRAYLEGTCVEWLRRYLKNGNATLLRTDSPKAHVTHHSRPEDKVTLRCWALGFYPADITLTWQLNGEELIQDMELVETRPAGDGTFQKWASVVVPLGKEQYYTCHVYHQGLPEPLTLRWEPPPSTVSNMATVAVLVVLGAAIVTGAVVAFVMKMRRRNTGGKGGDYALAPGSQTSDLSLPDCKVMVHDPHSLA
Assay [11] deals with H-2 L^d on RENCA cells, naturally loaded (murine) (UniProt P01897). Kind of assay: flow cytometry on RENCA cells cultured with 5-50 units/ml γ-IFN.
Sequence of H-2 L^d on RENCA cells, naturally loaded (murine) (P01897 25-362): as the sequence (P01897 25-362) above
In assay [12] the target is unloaded H-2 L^d on RMA-S L^d cells (no peptide added) (murine) (UniProt P01897). In words: direct flow cytometry on RMA-S L^d cells without added peptide.
Sequence of unloaded H-2 L^d on RMA-S L^d cells (no peptide added) (murine) (P01897 25-309): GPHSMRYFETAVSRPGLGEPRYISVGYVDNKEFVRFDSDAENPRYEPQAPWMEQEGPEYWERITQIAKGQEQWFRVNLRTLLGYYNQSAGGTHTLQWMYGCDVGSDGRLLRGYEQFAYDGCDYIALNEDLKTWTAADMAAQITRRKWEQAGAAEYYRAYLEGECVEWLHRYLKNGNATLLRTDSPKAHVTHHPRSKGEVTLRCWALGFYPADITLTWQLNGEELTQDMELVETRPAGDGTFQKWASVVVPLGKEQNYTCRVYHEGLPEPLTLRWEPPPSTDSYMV

Sequence of QL9-loaded H-2 L^d (murine) (P01897 25-362): as the sequence (P01897 25-362) above
Sequence of soluble divalent 2C TCR/Ig (A2KF29 whole entry, looked up, tested part not stated): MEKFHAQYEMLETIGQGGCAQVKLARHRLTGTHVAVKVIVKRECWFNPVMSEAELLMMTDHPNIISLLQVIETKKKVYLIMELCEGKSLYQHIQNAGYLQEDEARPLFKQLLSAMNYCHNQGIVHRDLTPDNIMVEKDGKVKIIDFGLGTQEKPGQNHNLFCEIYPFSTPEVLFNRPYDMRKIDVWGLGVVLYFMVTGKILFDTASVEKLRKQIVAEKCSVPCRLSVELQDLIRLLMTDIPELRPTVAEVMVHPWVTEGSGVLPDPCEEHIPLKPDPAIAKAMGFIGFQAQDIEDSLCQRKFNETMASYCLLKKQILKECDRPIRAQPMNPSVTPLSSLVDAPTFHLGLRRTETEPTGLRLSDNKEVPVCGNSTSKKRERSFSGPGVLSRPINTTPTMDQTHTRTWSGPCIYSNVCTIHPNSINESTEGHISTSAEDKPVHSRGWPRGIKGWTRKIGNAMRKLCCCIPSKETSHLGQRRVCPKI
Sequence of 2C TCR on 2C CTL (A2KF29 whole entry): as the sequence (A2KF29 whole entry, looked up, tested part not stated) above

Regarding “soluble divalent 2C TCR/Ig (from UniProt A2KF29)”, in [1], the concentration at which binding was detected was under 1 nM. The MCF in [2] was 1 MCF; in [3], 1 MCF; in assay [4] it was 36 MCF; in [5] it was 600 MCF; in assay [6], 3000 MCF.

For 2C TCR on 2C CTL (from UniProt A2KF29), the 2C CTL mediated lysis of peptide-loaded T2 cells (51Cr release), LD50 of the peptide in assay [7] was 100 ng/mL; in [9] it was 0.5 ng/mL and 1 ng/mL; in [10], 10 ng/mL. The substance further displayed a 2C CTL mediated lysis of p2Ca-loaded T2 L^d cells (51Cr release), LD50 of the peptide in [8] of 0.5 ng/mL.

Turning to mAb 30.5.7 (antibody), the fold increase of serologically reactive H-2 L^d on γ-IFN treated cells over untreated cells in [11] lay within 5 to 6 fold. Besides, the fold increase of mean channel fluorescence (cells at 27° C. against cells at 37° C.) in [12] was 5 fold.
